# Values joined by “and” are separate entries in the source; they are usually repeats but may differ in a detail not shown here. Equal entries are not always repeated. Where two headings read alike, the source gives them in different places.
# B1: S210A DegP (enzyme)
# chain: AETSSATTAQQMPSLAPMLEKVMPSVVSINVEGSTTVNTPRMPRNFQQFFGDDSPFCQEGSPFQSSPFCQGGQGGNGGGQQQKFMALGSGVIIDADKGYVVTNNHVVDNATVIKVQLSDGRKFDAKMVGKDPRSDIALIQIQNPKNLTAIKMADSDALRVGDYTVAIGNPFGLGETVTSGIVSALGRSGLNAENYENFIQTDAAINRGNAGGALVNLNGELIGINTAILAPDGGNIGIGFAIPSNMVKNLTSQMVEYGQVKRGELGIMGTELNSELAKAMKVDAQRGAFVSQVLPNSSAAKAGIKAGDVITSLNGKPISSFAALRAQVGTMPVGSKLTLGLLRDGKQVNVNLELQQSSQNQVDSSSIFNGIEGAEMSNKGKDQGVVVNNVKTGTPAAQIGLKKGDVIIGANQQAVKNIAELRKVLDSKPSVLALNIQRGDSTIYLLMQ
# How the values were obtained:
# [1] = molecular target: the molecule itself; assay: cryo-EM structure
# [2] = molecular target: the molecule itself; assay: cryo-EM structure; remark: listed apart in the source
protein,measurement,setting,value
B1,stoichiometry N,[1],18
same,stoichiometry N,[2],30 and 60
